These results are taken from paper PMC8249405, “Xanthomonas effector XopR hijacks host actin cytoskeleton via complex coacervation” (Nature Communications, 2021).

The target of data set [1] is G-actin (monomeric Ca2+-ATP-actin from rabbit skeleton muscle) (rabbit, UniProt P68135 1-377). Kind of data set: MST; peptides serially diluted and titrated into 10 uM LatB-actin; 50 mM Tris pH 7.4, 150 mM NaCl, 0.05% Tween 20; 22 °C; called label-free in the results. Conditions: both partners purified.
For data set [2], the target named is F-actin (filaments assembled from rabbit skeleton muscle actin) (rabbit, UniProt P68135 1-377). Briefly: co-sedimentation; high speed (100,000 x g, 20 min, 25 °C); 2 uM F-actin with a range of concentrations of the MBP-msfGFP fusion; SDS-PAGE; Hill fit. Conditions: both partners purified.
Data set [3] deals with the molecule itself. Briefly: SEC; Superdex 200 Increase 10/300, 150 mM NaCl, against protein standards.

B1: HH peptide (peptide)
peptide: SLRRLDLQLEEITRQCSDIQKQLFMEDRE
notes: XopR of Xcc, HH motif (extended helix and WH2 alpha-helix); also called CC; CC peptide; source: synthetic peptide (GL Biochem)
Molecule B1 came in with a Kd in data set [1] of 73.9 ± 63 µM.

B2: WH2 peptide (peptide)
peptide: QCSDIQKQLFMEDREATPQEQHLLKTRAA
notes: XopR of Xcc, WH2-like motif without the extended helix; source: synthetic peptide (GL Biochem)
For B2, in data set [1], the Kd was above 100 µM.

B3: MBP-HH-msfGFP (domain or fragment)
chain: SLRRLDLQLEEITRQCSDIQKQLFMEDRE
notes: XopR of Xcc, HH motif; also called chimeric protein HH; source: E. coli BL21 (DE3) Rosetta, purified; not shown: MBP, N-terminal, kept; msfGFP, C-terminal, kept
B3 registered a Kd in data set [2] of 1.27 ± 0.05 µM.

B4: EHWH2 peptide (peptide)
peptide: SLRRLDLQLEEITRQCSDIQKQLFMEDREATPQEQHLLKTRAA
notes: XopR of Xcc, extended helix plus WH2-like motif; also called CCWH2; source: synthetic peptide (GL Biochem)
For B4, in data set [1], the Kd stood at 16.5 ± 4.53 µM.

B5: MBP-EHWH2-msfGFP (domain or fragment)
chain: SLRRLDLQLEEITRQCSDIQKQLFMEDREATPQEQHLLKTRAA
notes: XopR of Xcc, EHWH2 stretch; also called chimeric protein EHWH2; source: E. coli BL21 (DE3) Rosetta, purified; not shown: MBP, N-terminal, kept; msfGFP, C-terminal, kept
On to B5, for which binding in data set [2] was characterised by a dissociation constant (Kd) of 1 ± 0.06 µM.

B6: Xcc XopR-FL (aa 1-411) (natural protein)
chain: MRLSQLFNSRHRVAPEPHGANPNKTTPLIPGASPQHPLSQAPKSTTSQGASKSHRGMLASARKSLASLRKQLPLTCMGSSPTLETVESPPAHTAAVTPGRTQQQHGTQARVDQRWQPPVPNATDHERVQRPQPQPQQTPPTRQSMSVPPKPARAQQLHGPQRPVDPRMQPPIPERMRRDEGQPPQHDKPASPPVPITPAQSSLPSPRPQPGRQPSLRRLDLQLEEITRQCSDIQKQLFMEDREATPQEQHLLKTRAALIAWRNEVRDSQLEALLVALAPMEDIRAPRTTSSGLAMVQMDAMQHNRREVLKARRKSVDRAALARNYARAQRRLESLKQGDAPKEQIRRLQRMMQGYQNMLALEQIVRSTDDQLERLGAPRLMSGIPTTAEQRRQSFEKERDAHQEAIDNGYY
notes: type III effector XopR of Xanthomonas campestris pv. campestris (Xcc) strain 8004, aa 1-411; The methods list a C-terminal His6-Flag form and a C-terminal mRuby2-His6-Flag form; also called full-length XopR; XopR full-length; source: E. coli BL21 (DE3) Rosetta, purified (HisTrap, gel filtration)
With B6, the “stoichiometry N” value in data set [3] turned out to be 3.
